Like-named read-outs stand apart in the source and are kept apart here.

What is called IC50 is the point on the concentration scale where inhibition reaches its midpoint. Lower therefore signals greater potency.

Test [1] has as its target T1, A*03:01 (human), P04439.
T1 chain: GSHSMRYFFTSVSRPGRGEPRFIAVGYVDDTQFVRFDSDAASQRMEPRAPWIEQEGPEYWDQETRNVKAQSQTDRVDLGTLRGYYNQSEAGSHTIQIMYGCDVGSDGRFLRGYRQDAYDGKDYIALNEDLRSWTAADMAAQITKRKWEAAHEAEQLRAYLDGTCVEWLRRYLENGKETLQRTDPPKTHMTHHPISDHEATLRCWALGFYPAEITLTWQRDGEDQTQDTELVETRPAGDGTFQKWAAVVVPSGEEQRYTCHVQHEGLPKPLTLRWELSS
Conditions: modification not given.

Test [2] addresses A*11:01 (human), P04439. The settings on record: modification not given.
In test [3] the target is A*24:02 (human), P04439. Conditions: modification not given.
The target in test [4] is HLA-A*32:01. Conditions: chains peptide; modification not given.
The target of test [5] is HLA-B*40:01. Conditions: chains peptide; modification not given.
Test [6] addresses A*03:01 (human), P04439. The settings on record: modification not given. This is another data set of the same source.
Test [7] concerns the target A*11:01 (human), P04439. The settings on record: modification not given. This is another data set of the same source.
Test [8] addresses A*03:01 (human), P04439. The settings on record: modification not given. The source holds these as a separate data set.
Test [9] concerns the target A*11:01 (human), P04439. The settings on record: modification not given. The source holds these as a separate data set.
Test [10] deals with A*24:02 (human), P04439. The settings on record: modification not given. The source holds these as a separate data set.
Test [11] concerns the target T1, A*03:01 (human), P04439. The settings on record: modification not given.
For test [12], the target named is A*11:01 (human), P04439. Conditions: modification not given. This is another data set of the same source.
The target in test [13] is A*03:01 (human), P04439. Description: ProImmune REVEAL MHC class I-peptide binding assay.
Test [14] has as its target A*11:01 (human), P04439. Description: ProImmune REVEAL MHC class I-peptide binding assay.
For another test, the target named is HLA-B*15:01. The settings on record: chains peptide; modification not given.
The target of test [15] is HLA-A*32:01. Conditions: chains peptide; modification not given. This is another data set of the same source.
Test [16] concerns the target HLA-B*40:01. Conditions: chains peptide; modification not given. This is another data set of the same source.
For test [17], the target named is HLA-B*40:01. The settings on record: chains peptide; modification not given. The source holds these as a separate data set.
In test [18] the target is HLA-A*32:01. Conditions: chains peptide; modification not given. This is another data set of the same source.

For the molecule QLKLNWFKK [SEQ ID NO: 311 serotype 2], the half-maximal inhibitory concentration (IC50) with A*03:01 (human), P04439 [1] came out at 151 nM; with A*11:01 (human), P04439 [2], 778 nM.
Consider SYTMCSGKF [SEQ ID NO: 308 serotype 4], for which the half-inhibitory concentration (IC50) with A*24:02 (human), P04439 [3] amounted to 222 nM.
Take KQWFLDLPL [SEQ ID NO: 310 serotype 4]: the IC50 is 8 nM with HLA-A*32:01 [4] and 398 nM with HLA-B*40:01 [5].
Consider ALTLHWFRK [SEQ ID NO: 311 serotype 4], for which the IC50 is 34 nM with A*03:01 (human), P04439 [6] and 47 nM with A*11:01 (human), P04439 [7].
Regarding ALKLSWFKK [SEQ ID NO: 311 serotype 1], the IC50 turned out to be 42 nM with A*03:01 (human), P04439 [8] and 59 nM with A*11:01 (human), P04439 [9].
In turn, SYVMCTGSF [SEQ ID NO: 308 serotype 1] came in with a 50% inhibitory concentration (IC50) with A*24:02 (human), P04439 [10] of 104 nM.
For the molecule ALKINWYRK [SEQ ID NO: 311 serotype 3], the IC50 with A*03:01 (human), P04439 [11] is 193 nM; with A*11:01 (human), P04439 [12], 376 nM.
For MCHATFTMR (modifications not checked) […], the REVEAL score at 0 h in the test with A*03:01 (human), P04439 [13] worked out at 86.8; in the test with A*11:01 (human), P04439 [14], 91.
For RQWFFDLPL [SEQ ID NO: 310 serotype 3], the IC50 worked out at 80 nM in the test with HLA-B*15:01, 7 nM in the test with HLA-A*32:01 [15] and 51 nM with HLA-B*40:01 [16].
With KQWFLDLPL [SEQ ID NO: 310 serotype 1], the IC50 was 398 nM with HLA-B*40:01 [17] and 8 nM in the test with HLA-A*32:01 [18].

The values are drawn from patent publication US20180280496A1.
